# Columns and labels:
# SARS-CoV-2 RBD [1] = biological target: T1, SARS-CoV-2 RBD (SARS-CoV-2, UniProt P0DTC2 319-541); assay: SPR
# SARS-CoV-2 RBD [2] = biological target: T1, SARS-CoV-2 RBD; assay: SPR; remark: listed apart in the source
Binder,Kd (SARS-CoV-2 RBD [1]) [nM],koff (SARS-CoV-2 RBD [2]) [s⁻¹]
"BD-515 (antibody, V domains shown) VH: EVQLVESGGGLVQPGGSLRLSCAASEFIVSRNYMSWVRQAPGKGLEWVSVIYSGGSTFYADSVKGRFTISRDNSKNTLYLQMNSLRAEDTGVYYCARDRGLVSDYWGQGTLVTVSS VL: DIQMTQSPSSLSASVGDRVTITCQASQDINKYLNWYQQKPGKAPKLLIFDASHLETGVPSRFSASGSGTDFTFTISSLQPEDIATYYCHQYDNLPRTFGQGTRLEIK",0.561,0.000389
"BD-604 (antibody, V domains shown) VH: EVQLVESGGGLIQPGGSLRLSCAASGIIVSSNYMTWVRQAPGKGLEWVSVIYSGGSTFYADSVKGRFTISRDNSKNTLYLQMSSLRAEDTAVYYCARDLGPYGMDVWGQGTTVTVSS VL: DIQLTQSPSFLSASVGDRVTITCRASQGISSDLAWYQQKPGKAPNLLIYAASTLQSGVPSRFSGSGSGTEFTLTISSLQPEDFATYYCQQLNSDLYTFGQGTKLEIK",0.012,
"BD-508 (antibody, V domains shown) VH: EVQLVESGGGLVQPGGSLRLSCAASGFIVSSNYMTWVRQAPGKGLEWVSVIYSGGSTFYADSVKGRFTISRHNSKNTLFLQMNSLRAEDTAVYYCARDAQNYGMDVWGQGTTVTVSS VL: DIQMTQSPSSLSASVGDRVTITCRASQSISSYLNWYQQKPGKAPKLLIFAASSLQTGAPSRFSGSGSGTDFTLTISSLQPEDFATYYCQQSYSTPPYTFGQGTKLEIK",1.3,0.000514
"BD-503 (antibody, V domains shown) VH: EVQLVESGGGLIQPGGSLRLSCAASGLIVSSNYMSWVRQAPGKGLEWVSVLYAGGSTDYAGSVKGRFTISRDNSKNTLYLQMNSLRAEDTAVYYCARDAAVYGIDVWGQGTTVTVSS VL: not shown",0.204,
"BD-623 (antibody, V domains shown) VH: EVQLVESGGGLVQPGGSLRLSCAASGFTVSSNYMSWVRQAPGKGLEWVSIIYSGGSTYYADSVKGRFTISRDNSKNTLYLQMNSLRAEDTAVYYCARDYAGRVWGQGTLVTVSS VL: QSALTQPASVSGSPGQSITISCTGTSSDVGSYNLVSWYQQRPGKAPKLILYEVTKRPSGVSNRFSGSKSGNTASLAISGLQAEDEADYYCCSYAGSSTWVFGGGTKLTVL",0.12,
